Publication PMC2816692, “Structural and Biochemical Characterization of SrcA, a Multi-Cargo Type III Secretion Chaperone in Salmonella Required for Pathogenic Association with a Host” (PLoS Pathogens, 2010)

Molecular target: the molecule itself
Test: SEC; SrcA alone, 200 µl at 1.1 mg/ml; Superdex S200 10/300GL; 20 mM Tris pH 7.5, 200 mM KCl

B1: His-tagged SrcA (SsrB-regulated chaperone A, STM2138) (natural protein)
chain: MYSRADRLLRQFSLKLNTDSIVFDENRLCSFIIDNRYRILLTSTNSEYIMIYGFCGKPPDNNNLAFEFLNANLWFAENNGPHLCYDNNSQSLLLALNFSLNESSVEKLECEIEVVIRSMENLYHILQDKGITLDTDYT
notes: SrcA (STM2138), type III secretion chaperone of Salmonella enterica serovar Typhimurium; the srcA gene was amplified from chromosomal DNA; STM numbers count on the LT2 genome; Dimer by crystal structure and gel filtration; source: E. coli Rosetta (DE3), purified (nickel-chelating resin, Mono-Q anion exchange); not shown: His6, C-terminal, kept
With B1 the “stoichiometry N” value was 2.
